Measured values reported in patent US20250026813A1 (published 2025).

B1: YANG-2202 (antibody, V domains shown)
VH: EVQLVESGGGLVQPGGSLRLSCAASGFTFSSFAMSWVRQAPGKGLEWVAAFSGRGAITHYTDSVKGRFTISRDNSKNTLYLQMNSLRAEDTAVYYCATYNWNPYYFDFWGQGTLVTVSS
VL: DIQMTQSPSSVSASIGDRVTITCRASQDINIWLAWYQQKPGKAPNLLIFDTSNLQSGVPSRFSGSGSGSDFTLTISSLQPEDFATYYCQQGNSFPRTFGQGTRLEIK
B2: YANG-2203 (antibody, V domains shown)
VH: QVQLVQSGAEVKQPGASVKVSCRASGYALTSFYVHWVRQAPGQGLEWMGIIKPSGGDTIYAQNLQGRVTMTRDTSTNTFYVELSSLRSEDTALYYCAISGNTRAFEIWGQGTMVTVSL
VL: QSVLTQPPSVSAAPGQKVTISCSGSSSNIGNNFVSWYQQLPGMVPKLLIYANNKRPSGIPDRFSGSRSGTSATLGITGLQTGDEADYYCGTWDSSRSAVLFGGGTKMTVL
B3: YANG-2204 (antibody, V domains shown)
VH: QMQLVQSGAEVKKPGASVKFSCKTSGYTFTNYYMVWVRQAPGQGLEWMGIIKPSGGNTIYAQKFQGRVTMTRDTSTNTVYMDLTSLRSEDTAVYYCARTGDRAFDVWGQGTMVTVSS
VL: QSVLTQPPSVSAAPGQKVTISCSGSSSNIGNNYVSWYQQLPGTAPKLLIYDNNKRPSGIPDRFSGSKSGTSATLGITGLQTGDEADYYCGTWDSSLGAGVFGGGTKLTVL
B4: YANG-1108 (antibody, V domains shown)
VH: QVQLVESGGGVVHPGRSLRLSCVVSGFTFSGYGMYWVRQAPGKGLEWVAVISKDGSDKYYADSVKGRFTISRDNSKNTLNLQMNSLRAEDTAVFYCAKERTFQGSGSYYNNYFYYGMDVWGQGTTVTVSS
VL: AIQLTQSPSSLSASVGDRVTITCRASQGISSALAWYQQKPGKAPNLLIYDASSLESGVPSRFSGSGFGTDFTLTINSLQPEDFASYYCQQFKSYPLTFGGGTKVEIK
B5: YANG-1112 (antibody, V domains shown)
VH: QITLKESGPTLVKPTQTLTLTCTFSGFSLSTGGVAVGWIRQPPGKALEWLAIIYWDDDKRYSPSLKSRLTITKDTSKNQVVLTMTNMDPVDTATYYCAHWGKDSFDIWGQGTMVTVSS
VL: SYELTQPPSVSVSPGQTARITCSGDALPRKYAYWYQQKSGQAPVLVIYEDNNRPSGIPERFSGSSSGTTATLTVSGAQVEDEADYYCYSTDTSGYVVFGGGTKLTVL
B6: YANG-1110 (antibody, V domains shown)
VH: QVQLAESGGGVVQPGRSLRLSCVVSGFTFSNYGMHWVRQAPGKGLEWVVFISNDGSNEDFVDSVKGRFTISRDNSKNTLYLQMNSLRAEDTAVYYCAKGGYFYGSGNYYYYYGMDVWGQGTTVTVSS
VL: QPVLTQSSSASASLGSSVKLTCTLSSVHSNHIIAWHQQQPGKAPRYLMKLEGSGRYSKGSGVPDRFSGSSSEADRYLTISNLQSEDEADYYCETWDNNTYVFGSGTKVTVL
B7: YANG-1103 (antibody, V domains shown)
VH: EVQMVESGGGLIQPGGSLRLSCAASGLTVSSNYMSWVRQAPGKGLEWVSVIYSGGSTFYADSVKDRFTISRDNSKNTLYLQMNSLRAEDTAVYYCARENWNYVFDCWGQGTLVTVSS
VL: DIQLTQSPSFLSASVGDRVTITCWASQGISSYLAWYQQKPGKAPKLLIYAASTLQSGVPSRFSGSGSGTEFTLTISSLQPEDFATYYCQQLNSHPIIFGQGTRLEIK
B8: YANG-1105 (antibody, V domains shown)
VH: EVQVVESGGGLIQPGGSLRLSCAASGITVSRNYMNWVRQAPGKGLEWVSVIYSGGSTFYADSVKGRFTISRDNSKNTLYLQMNSLRADDTGVYYCAREGYGMDVWGQGTTVTVSS
VL: DIQLTQSPSFLSASVGDRVTITCWASQGISSYLAWYQQKPGKAPKLLIYSASTLQSGVPSRFSGSGSGTEFTLTINSLQPEDFATYYCQQLNSHPCSFGQGTKLEIK
B9: YANG-1109 (antibody, V domains shown)
VH: EVQLVESGGGLIQPGGSLRLSCGVSGLTVSRNYMNWVRQAPGKGLEWVSVIYSGGSTFYADSVKGRFTISRDNSKNTLYLQMISLRAEDSGVYYCAREGFGMDVWGQGTTVTVSS
VL: DIQLTQSPSFLSASVGDRVTITCWASQGISNYLAWYQQKPGKAPKLLIYSASTLQSGVPSRFSGSGSGTEFTLTISNLQPADIATYYCQLLNSHPCSFGQGTKLEIK
B10: YANG-1107 (antibody, V domains shown)
VH: EVQMVESGGGLIQSGGSLRLSCAASGLSVSSNYMSWVRQAPGKGLEWVAVIYSGGSIFYADSVKDRFTISRDNSKNTLYLQMNSLRAEDTAVYYCARENWNYVFDCWGQGTLVTVSS
VL: DIQLTQSPSFLSASVGDRVTITCWASQGISTYLAWYQQKPGKAPKLLIYAASTLQSGVPSRFSGSGSGTEFTLTISSLQPEDFATYYCQQLSSHPIIFGQGTRLEIK
B11: YANG-1111 (antibody, V domains shown)
VH: EVQLVESGGGLIQPGGSLRLSCAASGFTFSSYSINWVRQAPGKGLEWVSFISGSSTTIYYADSVKGRFTISRDSAKNSLYLQMNSLRDEDTAVYYCARGLRSSIAPRPDYFDSWGQGILVTVSS
VL: SYVLTQPPSVSVAPGKTARITCGGNNIGSKGVHWYQQKPGQAPVLVIYYDSDRPSGIPERFSGSNSGNTATLTISRVEAGDEADYSCQVWDSSSDHPVFGGGTKLTVQ
B12: YANG-1119 (antibody, V domains shown)
VH: EVQLVESGGGLVKPGGSLRLSCAASGFTFSSYSMNWVRQAPGKGLEWVSSISTGSSYIFYADSVKGRFTISRDNAKNSLYLQMNSLRAEDTAVYYCAKTGDLPFFDYWGQGTLVTVSS
VL: QSALTQPASVSGSPGQSITISCTGTSSDVGRYNYVSWYQQHPGKAPKLMIYEVSNRPSGVSNRFSGSKSGNTASLTISGLQAEDEADYYCSSYTSSSTMVFGGGTKLTVL
B13: YANG-1114 (antibody, V domains shown)
VH: EVHLVESVGGLVKPGGSLRLSCAASGFTFSSYSMNWVRQAPGKGLEWVSSISTGSSYIFYADSVKGRFTISRDNAKNSLYLQMNSLRAEDTAVYYCAKTGDLPFFDYWGQGTLVTVSS
VL: QSALTQPASVSGSPGQSITISCTGTSSDVGRYNYVSWYQQHPGKAPKLMIYEVSNRPSGVSNRFSGSKSGNTASLTISGLQAEDEADYYCSSYTSSSTMVFGGGTKLTVL
B14: YANG-1113 (antibody, V domains shown)
VH: EVQLVESGGGLVKPGGSLRLSCAASGFTFSSYSMNWVRQAPGKGLEWVSSISTGSSYIFYADSVKGRFTMSRDNAKNSLYLQMNSLRAEDTAVYYCAKTGDLPFFDYWGQGTPVTVSS
VL: QSALTQPASVSGSPGQSITISCTGTSSDVGRYNYVSWYQQHPGKAPKLMIYEVSNRPSGVSNRFSGSKSGNTASLTISGLQAEDEADYYCSSYTSSSTMVFGGGTKLTVL
B15: YANG-1117 (antibody, V domains shown)
VH: EVQLVESGGGLVKPGGSLRLSCAASGFTFSSYSVNWVRQAPGKGLEWVSSISTGSSYIFYADSVKGRFTISRDNAKNSLYLQMNSLRAEDTAVYYCVKTGDLPFFDYWGQGTLVTVSS
VL: QSALTQPASVSGSPGQSITISCTGTRSDVGRYNYVSWYQQHPGKAPKLMIYEVTNRPSGVSNRFSGSKSGNTASLTISGLQAEDEADYYCSSYTNNSTMVFGGGTKLTVL
B16: YANG-1116 (antibody, V domains shown)
VH: EVQLVESGGGLVKPGGSLRLSCEASGFNFRSYALNWVRQAPGKGLEWVSSISTGSSYIFYADSVKGRFTISRDNAKNSLSLQMNSLRAEDTAVYYCAKTGDLPFFDYWGQGTLVTVSS
VL: QSALTQPASVSGSPGQSITISCTGTSSDVGRYNYVSWYQQHPGKAPKLMIYEVSNRPSGVSNRFSGSKSGNTASLTISGLQAEDEADYYCISYTSSSTMVFGGGTKLTVL
B17: YANG-1115 (antibody, V domains shown)
VH: EVQLVESGGGLVKPGGSLRLSCAASGFTFSSYSMNWVRQAPGKGLEWVSSISTGSSYIFYADSVKGRFTISRDNAKNSLYLQMNSLRAEDTAVYYCAKTGDLPFFDYWGQGTLVTVSS
VL: QSALTQPASVSGSPGQSITISCTGTSSDVGRYNYVSWYQQHPGKAPKLMIYEVSNRPSGVSNRFSGSKSGNTASLTISGLQAEDEADYYCSSYTSSSTMVFGGGTKLSVL
B18: YANG-1101 (antibody, V domains shown)
VH: QLQLQESGPGLVKPSETLSLTCTVSGGSISSSSYYWGWIRQPPGKGLEWIGSIYYSGSIYYNPSLKSRVTISVDTSKNQFSLKLSSVTAADTAVYYCASWFGEFLKADAFDIWGQGTMVTVSS
VL: QSALTQPASVSGSPGQSITISCTGTSSDVGGYSYVSWYQQHPGKAPKLMIYDVSKRPSGVSNRFSGSKSGNTASLTISGLQAEDEADYYCCSYAGGSTFVVFGGGTKLTVL
B19: YANG-1102 (antibody, V domains shown)
VH: QVQLQESGPGLVKPSGTLSLTCAVSGGSISTTNWWSWVRQSPGRGLEWIGEIFHIGYTNYNPSLKSRVTISVDKSKNQFSLKLNSVTVADTAVYYCARRVVMDTAMAHFDCWGQGTLVTVSS
VL: QSVLTQPPSVSGAPGQRVTISCTGSSSNIGAGYDVHWYQHLPGTAPKLLIYININRPSGVPDRFSGSKSGTSASLVIAGLQAEDGADYYCQSYDSSLSGWVFGGGTRLTVL
B20: YANG-1106 (antibody, V domains shown)
VH: EVQLVESGGGLIQPGGSLRLSCAASEFIVSRNYMSWVRQAPGKGLEWVSVIYSGGSTFYADSVRGRFTISRDNSKNTLYLQMNSLRAEDTAVYYCARDYGDQYFDYWGQGTLVTVSS
VL: EMVMTQSPATLSVSPGEKATLSCRASQTVSTNLAWYQQKPGQSPRLLIYGASTRATGIPARFSGSGSGTEFTLTISSLQSEDFAIYYCQQYVDWPRTFGQGTTVEIK

What follows are binders tested against SARS-CoV-2 spike protein bearing furin mutation and truncation in retention sequence (on pseudoviral envelope) (SARS-CoV-2, UniProt P0DTC2 14-1273) (assay: cell-based or functional assay).

Going from B1 to B2, the “PV neutralization % (Ab 1 ug/mL)” value falls from 37.5% to 35.7%.

With B3 the “PV neutralization % (Ab 1 ug/mL)” value was 41%.

Going from B2 to B3, the “PV neutralisation IC50” value falls from 5.45 nM to 3.3 nM (1.7-fold).

Each binder was assayed against SARS-CoV-2 spike protein bearing furin mutation and truncation in retention sequence, on pseudoviral particles (SARS-CoV-2, UniProt P0DTC2 14-1255) (assay: cell-based or functional assay).

Compared with B4, B5 is lower in “PV neutralization % (Ab 1 ug/mL)” value: 95.2% for the first, 89.2% for the second.

Going from B6 to B7, the “PV neutralization % (Ab 1 ug/mL)” value rises from 99.3% to 100%.

Going from B8 to B9, the “PV neutralization % (Ab 1 ug/mL)” value rises from 97.2% to 99.4%.

First: B10
Second: B11
The “PV neutralization % (Ab 1 ug/mL)” value of the first is higher: 99.2% for the first, 72.7% for the second.

Going from B12 to B13, the “PV neutralization % (Ab 1 ug/mL)” value falls from 99% to 93.2%.

Going from B14 to B15, the “PV neutralization % (Ab 1 ug/mL)” value rises from 97.6% to 97.8%.

Going from B16 to B17, the “PV neutralization % (Ab 1 ug/mL)” value falls from 99.2% to 97.8%.

Going from B18 to B19, the “PV neutralization % (Ab 1 ug/mL)” value falls from 98% to 86.9%.

B20 was tested, and the “PV neutralization % (Ab 1 ug/mL)” value was 99.5%.

Going from B5 to B7, the “PV neutralisation IC50” value falls from 0.52 nM to 0.28 nM (1.9-fold).

B9 and B11 are within 1.5-fold of each other in “PV neutralisation IC50” value: 1.81 nM for the first, 1.82 nM for the second.

B12 and B19 are within 1.5-fold of each other in “PV neutralisation IC50” value: 0.96 nM for the first, 0.84 nM for the second.
